These results are taken from patent US20210032320A1.

Assay [1] addresses NKp44 isoform 1 (NKp44-1) on NK92-44-1 cells (Homo sapiens (Human)) (UniProt O95944). As to the kind of experiment: cell-based or functional assay.
Assay [2] concerns the target NKp44 isoform 2 (NKp44-2) on NK92-44-2 cells (UniProt O95944). As to the kind of experiment: cell-based or functional assay.
In assay [3] the target is NKp44 isoform 3 (NKp44-3) on NK92-44-3 cells (UniProt O95944). Kind of assay: cell-based or functional assay.
In assay [4] the target is endogenous cellular PCNA (cell lysates, permeabilised cells, FFPE tissue) (human) (UniProt P12004). As to the kind of experiment: image stream of HeLa cells, similarity of the AF488 antibody stain to the 7AAD nuclear stain; 190 of 3950 cells.
Chain of UniProt P12004 (P12004 whole entry): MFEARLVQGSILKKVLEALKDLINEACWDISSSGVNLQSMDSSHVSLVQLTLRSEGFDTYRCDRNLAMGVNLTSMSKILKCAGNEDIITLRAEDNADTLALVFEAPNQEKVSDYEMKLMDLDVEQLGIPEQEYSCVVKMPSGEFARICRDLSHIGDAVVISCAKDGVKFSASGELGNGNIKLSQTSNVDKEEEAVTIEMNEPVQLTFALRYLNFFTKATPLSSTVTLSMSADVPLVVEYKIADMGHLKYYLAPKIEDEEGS

Take “PCNA over-expressed in HeLa target cells (from UniProt P12004 1-261)”: the figures for the relative amount of F-actin accumulating at the immune synapse in assay [1], in assay [2] and in assay [3] were -22.6%, 6.9% and 4.6%, respectively.
On to “commercial anti PCNA mAb clone PC10 (antibody)”, for which the %Gated in the gate 'Cytoplasmic PCNA' in assay [4] was 4.81%.
